This note sets out measurements from article PMC9963277 (Proceedings of the National Academy of Sciences of the …, 2023).

The labels stand for the following.
B3: E. coli ClpX (containing a neutral K408E mutation) (enzyme)
chain: not shown

The target of series [1] is B3. Description: cryo-EM structure.
The series “cryo-EM structure” concerns the molecule itself. Description: cryo-EM structure.

B1: E. coli SspB (natural protein)
chain: MDLSQLTPRRPYLLRAFYEWLLDNQLTPHLVVDVTLPGVQVPMEYARDGQIVLNIAPRAVGNLELANDEVRFNARFGGIPRQVSVPLAAVLAIYARENGAGTMFEPEAAYDEDTSIMNDEEASADNETVMSVIDGDKPDHDDDTHPDDEPPQPPRGGRPALRVVK
Turning to B1, the binding result in series [1] is on record as “binds”.

B2: E. coli ClpP (enzyme)
chain: not shown
B2: the binding result (in series [1]; in “cryo-EM structure”) was “binds” throughout.
Consider B3, for which the binding result in the series “cryo-EM structure” was “binds”.
